Assay results as given in patent US20210107983A1 (Boehringer Ingelheim, published 2021).

T1: human B7H6 on HCT-15 cells (human, UniProt Q68D85 25-454)
T1 sequence (looked up): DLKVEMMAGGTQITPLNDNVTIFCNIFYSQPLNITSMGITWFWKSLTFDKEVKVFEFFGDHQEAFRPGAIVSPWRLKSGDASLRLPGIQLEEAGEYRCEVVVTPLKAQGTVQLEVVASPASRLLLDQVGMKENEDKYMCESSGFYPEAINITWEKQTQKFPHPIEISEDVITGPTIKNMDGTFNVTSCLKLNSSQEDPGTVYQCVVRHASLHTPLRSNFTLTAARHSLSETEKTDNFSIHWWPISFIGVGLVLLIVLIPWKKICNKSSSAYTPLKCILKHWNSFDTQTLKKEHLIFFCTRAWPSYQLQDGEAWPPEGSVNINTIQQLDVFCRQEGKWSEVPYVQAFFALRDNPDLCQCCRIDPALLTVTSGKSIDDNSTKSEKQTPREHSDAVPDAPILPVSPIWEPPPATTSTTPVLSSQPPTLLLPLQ

T2: Cyno B7H6-His (cynomolgus monkey)
T2 construct: also called CyB7H6; cyB7-H6
T2 chain: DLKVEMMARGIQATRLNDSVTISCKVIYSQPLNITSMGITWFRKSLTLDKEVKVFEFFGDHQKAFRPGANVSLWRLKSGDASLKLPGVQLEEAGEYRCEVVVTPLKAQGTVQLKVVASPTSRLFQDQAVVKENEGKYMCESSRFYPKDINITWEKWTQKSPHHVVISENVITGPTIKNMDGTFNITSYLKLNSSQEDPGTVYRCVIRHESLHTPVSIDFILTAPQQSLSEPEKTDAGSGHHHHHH


How the values were obtained:
[1] = biological target: T1, human B7H6 on HCT-15 cells; assay: cell-based or functional assay
[2] = biological target: T3, Fc-His-tagged human B7H6 ECD (human); assay: ELISA, plate coated with Fc-His-tagged human B7H6 ECD, anti-human IgG F(ab')2-peroxidase, TMB
T3 construct: also called huB7H6-ECD-Fc-His; recombinant human B7H6 ECD
Protocol: To assess binding of B7H6/CD3 binding proteins to recombinant human Fc-His-tagged B7H6 ECD and human Fc-His-tagged Ala-mutated B7H6 extracellular proteins as described in Example 3, MediSorp™ plates (Nunc, 467320) were coated with […] recombinant proteins overnight at 4° C. The next day, plates were blocked with 0.5% bovine serum albumin (BSA) in phosphate buffered saline (PBS) for 1 hour at room temperature (RT). Subsequently plates were washed with […] containing 0.05% TWEEN®20 viscous liquid and B7H6/CD3 binding proteins were incubated at concentrations ranging from 0.00001 to 10 μg/ml. After an additional washing step, bound B7H6/CD3 binding proteins were detected by a peroxidase conjugated goat anti-human IgG F(ab′)₂-specific secondary antibody (Jackson Immunoresearch) and visualized by TMB substrate solution (Bender Med Systems).

Cyno B7H6-His [3] = biological target: T2, Cyno B7H6-His; assay: SPR, binder captured on Protein A/G, B7H6 analyte
Method in brief: (§1)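 B7H6/CD3 binder captured (~700 RU) on a Protein A/G CM5 surface in HBS-EP+. Human or cyno B7H6 injected at 0–100 nM and human B7H1 at 0 nM and 1 μM, 300 s association and 1200 s dissociation. Data double-referenced against the reference flow cell and blank.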

Human CD3 E+G HuFc-6xHis = biological target: T4, Human CD3 E+G HuFc-6xHis (human); assay: SPR, CD3E+G-hFc immobilized, binder analyte
T4 construct: also called HuCD3E+G-hFc; huCD3
Method in brief: (§2)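 On a ProteOn XPR36, human and cyno CD3E+G-hFc were amine-coupled to a GLM chip at 0.4, 0.2 and 0.1 μg/mL in 10 mM acetate pH 4.5. B7H6/CD3 binding protein (0–100 nM) flowed in HBS-EP+ at 30 μL/min, with 300 s association and 600 s dissociation. Interspot and blank responses were subtracted.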

Cyno CD3 E+G HuFc-6xHis [4] = biological target: T5, Cyno CD3 E+G HuFc-6xHis (cynomolgus monkey); assay: SPR, CD3E+G-hFc immobilized, binder analyte
T5 construct: also called CyCD3E+G-hFc; cyCD3
Method in brief: as §2

Cyno CD3 E+G HuFc-6xHis [5] = biological target: T5, Cyno CD3 E+G HuFc-6xHis; assay: ratio of SPR KDs cyno/human
Cyno B7H6-His [6] = biological target: T2, Cyno B7H6-His; assay: ratio of SPR KDs cyno/human
[7] = biological target: T6, chicken egg white lysozyme (chicken, UniProt P00698 19-147); assay: SPR, 1 µM binder over immobilized lysozyme
T6 construct: unrelated positively charged protein, amine-coupled to the chip; also called Lysozyme (positive)
Method in brief: (§3)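 Non-specific binding tested with samples at 1 μM in HBS-EP at 25 °C, 5 μL/min, over lysozyme or trypsin inhibitor amine-coupled to CM5 chip (3000–5000 RU). Association 10 min, dissociation 15 min.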

[8] = biological target: T7, trypsin inhibitor from Glycine max soybean (Glycine max (soybean)); assay: SPR, 1 µM binder over immobilized trypsin inhibitor
T7 construct: unrelated negatively charged protein, amine-coupled to the chip
Method in brief: as §3

Human B7H1 = biological target: T8, Human B7H1 (human, UniProt Q9NZQ7 20-239); assay: SPR, binder captured on Protein A/G, HuB7H1 analyte
T8 construct: also called HuB7H1; huB7-H1
Method in brief: as §1

T6 sequence (P00698 19-147): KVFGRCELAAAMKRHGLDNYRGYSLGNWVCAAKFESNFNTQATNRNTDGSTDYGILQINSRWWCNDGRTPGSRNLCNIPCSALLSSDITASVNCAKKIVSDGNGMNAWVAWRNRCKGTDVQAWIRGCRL
T8 sequence (Q9NZQ7 other isoform, or with tags, fused parts or gaps limits assumed): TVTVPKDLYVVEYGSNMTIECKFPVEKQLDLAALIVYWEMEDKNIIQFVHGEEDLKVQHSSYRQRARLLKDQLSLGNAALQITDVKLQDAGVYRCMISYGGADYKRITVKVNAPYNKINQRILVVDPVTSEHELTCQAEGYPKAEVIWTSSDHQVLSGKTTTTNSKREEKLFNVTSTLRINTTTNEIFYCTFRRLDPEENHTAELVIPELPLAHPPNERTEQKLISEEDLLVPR
T4 sequence (chain, as listed by the source limits assumed): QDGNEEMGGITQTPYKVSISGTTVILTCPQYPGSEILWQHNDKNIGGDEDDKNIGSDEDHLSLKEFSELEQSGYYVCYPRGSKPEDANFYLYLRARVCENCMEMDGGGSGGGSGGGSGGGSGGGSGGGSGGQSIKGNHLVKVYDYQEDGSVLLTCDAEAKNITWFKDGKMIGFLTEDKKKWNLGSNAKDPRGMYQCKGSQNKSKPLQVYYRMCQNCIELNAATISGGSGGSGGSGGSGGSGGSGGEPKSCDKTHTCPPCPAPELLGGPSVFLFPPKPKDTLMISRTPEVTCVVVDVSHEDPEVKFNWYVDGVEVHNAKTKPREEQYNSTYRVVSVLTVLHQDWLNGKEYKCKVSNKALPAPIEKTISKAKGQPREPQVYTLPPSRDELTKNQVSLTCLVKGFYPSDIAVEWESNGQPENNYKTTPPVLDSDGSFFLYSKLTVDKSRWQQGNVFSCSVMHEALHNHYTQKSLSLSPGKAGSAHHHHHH
T5 sequence (chain, as listed by the source limits assumed): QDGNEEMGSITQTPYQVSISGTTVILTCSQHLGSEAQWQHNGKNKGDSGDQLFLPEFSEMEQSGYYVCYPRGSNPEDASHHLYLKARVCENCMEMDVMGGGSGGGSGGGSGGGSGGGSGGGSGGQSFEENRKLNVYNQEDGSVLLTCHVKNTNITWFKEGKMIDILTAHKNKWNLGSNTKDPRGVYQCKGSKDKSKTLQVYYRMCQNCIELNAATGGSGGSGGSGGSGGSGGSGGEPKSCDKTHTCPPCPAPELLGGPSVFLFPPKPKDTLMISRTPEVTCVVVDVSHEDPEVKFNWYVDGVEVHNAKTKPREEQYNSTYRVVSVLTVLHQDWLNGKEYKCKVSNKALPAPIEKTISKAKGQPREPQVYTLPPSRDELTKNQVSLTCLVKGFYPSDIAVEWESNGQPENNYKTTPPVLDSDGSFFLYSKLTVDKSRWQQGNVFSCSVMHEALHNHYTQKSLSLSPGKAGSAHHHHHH
T7 sequence (P01070 25-205): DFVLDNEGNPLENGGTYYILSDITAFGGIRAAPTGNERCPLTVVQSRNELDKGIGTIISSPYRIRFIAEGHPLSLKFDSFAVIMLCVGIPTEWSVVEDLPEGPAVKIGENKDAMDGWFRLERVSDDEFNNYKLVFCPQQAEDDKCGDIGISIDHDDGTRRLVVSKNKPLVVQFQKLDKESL

EC50 (read off the curve) [2] | Kd (Cyno B7H6-His [3]) | Kd (Human CD3 E+G HuFc-6xHis) | Kd (Cyno CD3 E+G HuFc-6xHis [4]) | cy/hu CD3 (Cyno CD3 E+G HuFc-6xHis [5]) | cy/hu B7-H6 (Cyno B7H6-His [6]) | Non-specific binding (RU) [7] | Non-specific binding (RU) [8] | binding result (Human B7H1) | Binder | EC50 [nM], 72 hour cytotoxicity assay, non-stimulated T-cells (Donor #1) as effector cells, HCT-15 cells as target cells [1]
~0.05 µg/mL | – | – | – | – | – | – | – | – | B7H6#11/CD3#1 (bispecific antibody, scFab-Fc heterodimer, one B7H6 chain and one CD3 chain) chain 1: not shown chain 2: EAVVTQEPSLTVSPGGTVTLTCRSSTGAVTTSNYANWVQEKPGQLPRGLIGGTNKRAPWVPARFSGSLLGGKAALTLSGAQPEDEAEYFCALWYSNLWVFGGGTKLTVLGQPKAAPSVTLFPPSSEELQANKATLVCLISDFYPGAVKVAWKADGSPVNTGVETTTPSKQSNNKYAASSYLSLTPEQWKSHRSYSCQVTHEGSTVEKTVAPAECSGGGGSEGKSSGSGSESKSTEGKSSGSGSESKSTGGGGSEVQLVESGGGLVQPGGSLKLSCAASGFTFNTYAMNWVRQAPGKGLEWVARIRSKYNNYATYYADSVKDRFTISRDDSKNTAYLQMNNLKTEDTAVYYCVRHGNFGNSYVSWFAYWGQGTLVTVSAASTKGPSVFPLAPSSKSTSGGTAALGCLVKDYFPEPVTVSWNSGALTSGVHTFPAVLQSSGLYSLSSVVTVPSSSLGTQTYICNVNHKPSNTKVDKRVEPKSCDKTHTCPPCPAPEAAGGPSVFLFPPKPKDTLMISRTPEVTCVVVDVSHEDPEVKFNWYVDGVEVHNAKTKPREEQYNSTYRVVSVLTVLHQDWLNGKEYKCKVSNKALPAPIEKTISKAKGQPREPQVYTLPPSREEMTKNQVSLSCAVKGFYPSDIAVEWESNGQPENNYKTTPPVLDSDGSFFLVSKLTVDKSRWQQGNVFSCSVMHEALHNRFTQKSLSLSPG | 0.77 nM
– | 1 nM | 4.3 nM | 5.2 nM | 1.2 | 1.1 | 16.2 RU | 110 RU | no binding (tested: 1 µM) | B7H6#14/CD3#5 (bispecific antibody, human IgG1, kappa, L234A L235A, scFab-Fc heterodimer) chain 1: DIQMTQSPSSLSASVGDRVTITCKASQNVGKYVAWYQQKPGKAPKSLIYSASNRYDGVPSRFSGSGSGTDFTLTISSLQPEDFATYFCQQYISYPLTFGAGTKLEIKRTVAAPSVFIFPPSDEQLKSGTASVVCLLNNFYPREAKVQWKVDNALQSGNSQESVTEQDSKDSTYSLSSTLTLSKADYEKHKVYACEVTHQGLSSPVTKSFNRGECGGGGSEGKSSGSGSESKSTEGKSSGSGSESKSTGGGGSQVQLVQSGAEVKKPGASVKVSCKASGYTFTNYWMNWMKQAPGQGLEWIGGIYLNGDSTDYNEKFKGKVTMTVDTSTSTVYMELSSLRSEDTAVYYCTRRGDYFGDFWGQGTLVTVSSASTKGPSVFPLAPSSKSTSGGTAALGCLVKDYFPEPVTVSWNSGALTSGVHTFPAVLQSSGLYSLSSVVTVPSSSLGTQTYICNVNHKPSNTKVDKRVEPKSCDKTHTCPPCPAPEAAGGPSVFLFPPKPKDTLMISRTPEVTCVVVDVSHEDPEVKFNWYVDGVEVHNAKTKPREEQYNSTYRVVSVLTVLHQDWLNGKEYKCKVSNKALPAPIEKTISKAKGQPREPQVYTLPPSREEMTKNQVSLWCLVKGFYPSDIAVEWESNGQPENNYKTTPPVLDSDGSFFLYSKLTVDKSRWQQGNVFSCSVMHEALHNHYTQKSLSLSPG chain 2: not shown | –
– | 2 nM | 10.4 nM | 10 nM | 1 | 1.1 | 37.8 RU | 47.8 RU | no binding (tested: 1 µM) | B7H6#23/CD3#2 (bispecific antibody, human IgG1, kappa, L234A L235A, scFab-Fc heterodimer) chain 1: DIQMTQSPSSLSASVGDRVTITCKASQNVGKYVAWYQQKPGKAPKSLIYSASNRYDAVPSRFSGSGSGTDFTLTISSLQPEDFATYFCQQYISYPLTFGAGTKLEIKRTVAAPSVFIFPPSDEQLKSGTASVVCLLNNFYPREAKVQWKVDNALQSGNSQESVTEQDSKDSTYSLSSTLTLSKADYEKHKVYACEVTHQGLSSPVTKSFNRGECGGGGSEGKSSGSGSESKSTEGKSSGSGSESKSTGGGGSQVQLVQSGAEVKKPGASVKVSCKASGYTFTSYWMNWMKQAPGQGLEWIGGIYLSGESTDYNEKFKGKVTMTVDTSTSTVYMELSSLRSEDTAVYYCTRRGDYFGDFWGQGTLVTVSSASTKGPSVFPLAPSSKSTSGGTAALGCLVKDYFPEPVTVSWNSGALTSGVHTFPAVLQSSGLYSLSSVVTVPSSSLGTQTYICNVNHKPSNTKVDKRVEPKSCDKTHTCPPCPAPEAAGGPSVFLFPPKPKDTLMISRTPEVTCVVVDVSHEDPEVKFNWYVDGVEVHNAKTKPREEQYNSTYRVVSVLTVLHQDWLNGKEYKCKVSNKALPAPIEKTISKAKGQPREPQVYTLPPSREEMTKNQVSLWCLVKGFYPSDIAVEWESNGQPENNYKTTPPVLDSDGSFFLYSKLTVDKSRWQQGNVFSCSVMHEALHNHYTQKSLSLSPG chain 2: not shown | –
– | 0.9 nM | 4.1 nM | 5.7 nM | 1.4 | 2.1 | 15.7 RU | 34 RU | no binding (tested: 1 µM) | B7H6#14/CD3#6 (bispecific antibody, human IgG1, kappa, L234A L235A, scFab-Fc heterodimer) chain 1: DIQMTQSPSSLSASVGDRVTITCKASQNVGKYVAWYQQKPGKAPKSLIYSASNRYDGVPSRFSGSGSGTDFTLTISSLQPEDFATYFCQQYISYPLTFGAGTKLEIKRTVAAPSVFIFPPSDEQLKSGTASVVCLLNNFYPREAKVQWKVDNALQSGNSQESVTEQDSKDSTYSLSSTLTLSKADYEKHKVYACEVTHQGLSSPVTKSFNRGECGGGGSEGKSSGSGSESKSTEGKSSGSGSESKSTGGGGSQVQLVQSGAEVKKPGASVKVSCKASGYTFTNYWMNWMKQAPGQGLEWIGGIYLNGDSTDYNEKFKGKVTMTVDTSTSTVYMELSSLRSEDTAVYYCTRRGDYFGDFWGQGTLVTVSSASTKGPSVFPLAPSSKSTSGGTAALGCLVKDYFPEPVTVSWNSGALTSGVHTFPAVLQSSGLYSLSSVVTVPSSSLGTQTYICNVNHKPSNTKVDKRVEPKSCDKTHTCPPCPAPEAAGGPSVFLFPPKPKDTLMISRTPEVTCVVVDVSHEDPEVKFNWYVDGVEVHNAKTKPREEQYNSTYRVVSVLTVLHQDWLNGKEYKCKVSNKALPAPIEKTISKAKGQPREPQVYTLPPSREEMTKNQVSLWCLVKGFYPSDIAVEWESNGQPENNYKTTPPVLDSDGSFFLYSKLTVDKSRWQQGNVFSCSVMHEALHNHYTQKSLSLSPG chain 2: not shown | –
